± gives the standard deviation of the averaged measurements.
Tests used:
[1] = BHET released, HPLC; higher = more BHET released; extreme values may be limits of the assay; conditions: 24 h
Experimental: (§1)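 Purified PET hydrolases, 2.5 ug enzyme on 3.5 mg amorphous PET film (aFilm) or crystalline PET powder (cryPow) in 0.5 mL of 50 mM buffer (NaCitrate pH 4.5/5.5, NaPhosphate 6.5/7.5, glycine 8.5/9.5) at 60 or 70 C with shaking for 24 h. Total aromatic product by UV-Vis (260/280 nm, blank-subtracted, normalised per mg enzyme) and individual TPA, MHET, BHET concentrations by UHPLC-DAD at 240 nm; duplicate reactions.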

[2] = MHET released, HPLC; higher = more MHET released; extreme values may be limits of the assay; conditions: 24 h
Experimental: as §1

[3] = terephthalic acid (TPA) released, HPLC; higher = more TPA released; extreme values may be limits of the assay; conditions: 24 h
Experimental: as §1

[4] = PET hydrolysis product formed (TPA+MHET+BHET, UV-Vis) per mg enzyme (mmol/mg enzyme); higher = more PET depolymerisation activity; extreme values may be limits of the assay; conditions: 2 h
Experimental: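 Purified PET hydrolases (His-SUMO cleaved, E. coli C41(DE3) small-scale expression), 2.5 ug enzyme on 3.5 mg amorphous PET film (aFilm) or crystalline PET powder (cryPow) in 0.5 mL of 50 mM buffer (NaCitrate pH 4.5/5.5, NaPhosphate 6.5/7.5, glycine 8.5/9.5) at 60 or 70 C with shaking for 2 h. Soluble aromatic products (TPA+MHET+BHET) were quantified by UV-Vis at 260/280 nm, blank-subtracted against the no-enzyme control, and normalised per mg enzyme; duplicate reactions.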

QTNPYARGPDPTAASLEASAGPFTVRSFTVSRPSGYGAGTVYYPTNAGGTVGAIAIVPGYTARQSSIKWWGPRLASHGFVVITIDTNSTLDQPESRSSQQMAALEQVASLNGTSSSPIYGKVDTARMGVMGWSMGGGGSLISACNNPSLKAAVVQAPWHSSTNFSCVTVPTLIFACENDSIAPVNSSALPIYDSMSENAKQFLEICGGSHSCANTGNSDQALIGKKGVAWMKRFMDNDTRYSTFACENPNSTRVCDFRTANCS [Z1-PETase]
Conditions	BHET released, [1] [mM]	MHET released, [2] [mM]	PET hydrolysis product formed, [4]	terephthalic acid, [3] [mM]
PET substrate: aFilm, 60 °C, pH 4.5	0	0	0	0
PET substrate: aFilm, 60 °C, pH 5.5	0	0	0	0
PET substrate: aFilm, 60 °C, pH 6.5	0	0.321 ± 0.11	0	0.227 ± 0.03
PET substrate: aFilm, 60 °C, pH 7.5	0	1.88 ± 0.9	0.032 ± 0.00089	0.685 ± 0.19
PET substrate: aFilm, 60 °C, pH 8.5	0	0.249 ± 0.026	0.03625 ± 0.00018	0.179 ± 0.076
PET substrate: aFilm, 60 °C, pH 9.5	0	1.03 ± 0.33	0.0733 ± 0.012	1.22 ± 0.028
PET substrate: aFilm, 70 °C, pH 4.5	0	0	0	0
PET substrate: aFilm, 70 °C, pH 5.5	0	0	0	0
PET substrate: aFilm, 70 °C, pH 6.5	0	0	0	0
PET substrate: aFilm, 70 °C, pH 7.5	0	0.0119 ± 0.017	0	0.0109 ± 0.015
PET substrate: aFilm, 70 °C, pH 8.5	0	0.00565 ± 0.008	0	0.00307 ± 0.0043
PET substrate: aFilm, 70 °C, pH 9.5	0	0	0.00338 ± 0.0048	0.0495 ± 0.037
PET substrate: cryPow, 60 °C, pH 4.5	0	0	0	0
PET substrate: cryPow, 60 °C, pH 5.5	0	0.053 ± 0.043	0	0.0408 ± 0.032
PET substrate: cryPow, 60 °C, pH 6.5	0.00328 ± 0.0046	0.476 ± 0.032	0.0995 ± 0.044	0.114 ± 0.018
PET substrate: cryPow, 60 °C, pH 7.5	0	0.522 ± 0.033	0.135 ± 0.068	0.236 ± 0.015
PET substrate: cryPow, 60 °C, pH 8.5	0	0.343 ± 0.099	0.102 ± 0.0012	0.225 ± 0.023
PET substrate: cryPow, 60 °C, pH 9.5	0	0.071 ± 0.022	0.13 ± 0.015	0.72 ± 0.023
PET substrate: cryPow, 70 °C, pH 4.5	0	0	0	0
PET substrate: cryPow, 70 °C, pH 5.5	0	0	0	0
PET substrate: cryPow, 70 °C, pH 6.5	0	0.125 ± 0.011	0.0288 ± 0.0056	0.0337 ± 0.0038
PET substrate: cryPow, 70 °C, pH 7.5	0	0.181 ± 0.033	0.0688 ± 0.0027	0.17 ± 0.03
PET substrate: cryPow, 70 °C, pH 8.5	0	0.123 ± 0.0094	0.0583 ± 0.0029	0.0464 ± 0.0031
PET substrate: cryPow, 70 °C, pH 9.5	0	0.0142 ± 0.0083	0.0657 ± 0.0079	0.367 ± 0.13
